Holding throughout (settings): both partners purified
The target of test [1] is T1, recombinant human MT1-MMP catalytic domain (human, UniProt P50281 114-287).
T1 construct: MT1-MMP (MMP14), human, catalytic domain (20 kDa); PDB 1BQQ chain M is the catalytic domain structure used for the docking, not necessarily the same limits; also called Membrane type 1 metalloproteinase; MMP14
The test can be described thus: ITC; MicroCal ITC-200, 25 °C, 10 mM HEPES, 150 mM NaCl, pH 7.4; results and legend: peptides injected into MT1-MMP; methods: MT1-160p (1 mM) in the syringe into binding peptides (0.1 mM) in the cell; one-site binding model.

The target in test [2] is T1, recombinant human MT1-MMP catalytic …. The experiment in a line: atomic force microscopy (single-molecule recognition force spectroscopy); peptide covalently on the AFM tip through NHS-PEG18-aldehyde; MT1-MMP immobilised on APTES-treated mica; PBS; 25 °C; control with free excess peptide (1 mmol/L).
For test [3], the target named is T2, MT1-160p (human).
T2 construct: peptide of MT1-MMP (MMP14) that holds the MT-Loop (Tyr164-Gln174); source: synthetic peptide, bought: GL Biochem Ltd. (Shanghai)
T2 peptide: REVPYAYIREGHEKQ
The experiment in a line: atomic force microscopy (single-molecule recognition force spectroscopy); peptide covalently on the AFM tip through NHS-PEG18-aldehyde; MT1-160p immobilised on APTES-treated mica; PBS.

Results on 3 molecules are retold here after publication PMC6037669, “Optimization of a MT1-MMP-targeting Peptide and Its Application in Near-infrared Fluorescence Tumor Imaging” (Scientific Reports, 2018).

B1: MT1-AF7p (peptide)
peptide: HWKHLHNTKTFL
notes: In the AFM experiments coupled covalently to the tip through an NHS-PEG18-aldehyde linker; In the in vivo imaging Cy5.5 was conjugated to the N-terminus; also called original peptide; original ligand; source: synthetic peptide (solid-phase, Fmoc chemistry, HPLC purified)
On to B1, for which the Ka in test [1] was 107000 M⁻¹. Moreover, in test [2], the “retraction force (peak position of the histogram)” value (“retraction force” for short) stood at 150 pN. The binding result in test [3] is listed as “binds”.

B2: MT1-AF7p-H4K (peptide)
peptide: HWKKLHNTKTFL
notes: MT1-AF7p with histidine 4 changed to lysine (rational design by docking); In the AFM experiments coupled covalently to the tip through an NHS-PEG18-aldehyde linker; also called optimized peptide; peptidomimetic; source: synthetic peptide, bought: GL Biochem Ltd. (Shanghai)
For the molecule B2, in test [2], the “retraction force” value is 166 pN. The binding result in test [3] is given as “binds”.

B3: MT1-AF7p-H4R (peptide)
peptide: HWKRLHNTKTFL
notes: MT1-AF7p with histidine 4 changed to arginine (rational design by docking); In the AFM experiments coupled covalently to the tip through an NHS-PEG18-aldehyde linker; also called optimized peptide; peptidomimetic; source: synthetic peptide, bought: GL Biochem Ltd. (Shanghai)
In the case of B3, in test [1], the Ka was 175000 M⁻¹, the dH is -0.29 kcal/mol and the “stoichiometry N” value was determined as 1.14. In addition, in test [2], the “retraction force” value was determined as 260 pN. Further, the binding result in test [3] is “binds”.
